Conditions: Bacillus amyloliquefaciens; pH 6.3; 25 °C; Urea; Fluorescence; MES 450 mM; reversible: yes; whole UniProt chain shown

B1: Ribonuclease wild type, P00648 (protein)
chain: MMKMEGIALKKRLSWISVCLLVLVSAAGMLFSTAAKTETSSHKAHTEAQVINTFDGVADYLQTYHKLPDNYITKSEAQALGWVASKGNLADVAPGKSIGGDIFSNREGKLPGKSGRTWREADINYTSGFRNSDRILYSSDWLIYKTTDHYQTFTKIR
Question: With B1 as the protein, how does the denaturant m value read?
Answer: Its denaturant m value is 1.92 kcal/mol/M.

Question: And the “denaturant midpoint (higher = more stable)” value?
Answer: Its value is 4.6 M.

Question: What about the unfolding free energy of the same protein?
Answer: The unfolding free energy was 8.83 kcal/mol.

Source: FireProtDB (doi:10.1016/0022-2836(92)90907-2)
